Experiment [1] addresses Full-length wild-type human Ang-1 (hAng-1-WT) (human) (UniProt Q15389). As to the kind of experiment: cell-based or functional assay.
Experiment [2] deals with wild-type human Ang-2 (hAng-2-WT) (human) (UniProt O15123). Description: SPR, peptibody captured. In general terms: SPR reads the build-up and loss of mass on a sensor chip optically.
Experiment [3] has as its target Monomeric fibrinogen-like domain of human Ang2 (hAng-2FD) (human) (UniProt O15123). Description: SPR, peptibody captured.
Experiment [4] addresses Full-length wild-type human Ang-1 (hAng-1-WT) (human) (UniProt Q15389). Description: SPR, peptibody captured on anti-human IgG, 25 C.
For experiment [5], the target named is wild-type human Ang-2 (hAng-2-WT) (human) (UniProt O15123). As to the kind of experiment: SPR, peptibody captured on anti-human IgG, 25 C.
Experiment [6] deals with Full-length wild-type human Ang-1 (hAng-1-WT) (human) (UniProt Q15389). As to the kind of experiment: SPR, peptibody captured on anti-human IgG, 25 C. The source holds these as a separate data set.
Sequence of Full-length wild-type human Ang-1 (hAng-1-WT) (human) (Q15389 20-498 limits assumed): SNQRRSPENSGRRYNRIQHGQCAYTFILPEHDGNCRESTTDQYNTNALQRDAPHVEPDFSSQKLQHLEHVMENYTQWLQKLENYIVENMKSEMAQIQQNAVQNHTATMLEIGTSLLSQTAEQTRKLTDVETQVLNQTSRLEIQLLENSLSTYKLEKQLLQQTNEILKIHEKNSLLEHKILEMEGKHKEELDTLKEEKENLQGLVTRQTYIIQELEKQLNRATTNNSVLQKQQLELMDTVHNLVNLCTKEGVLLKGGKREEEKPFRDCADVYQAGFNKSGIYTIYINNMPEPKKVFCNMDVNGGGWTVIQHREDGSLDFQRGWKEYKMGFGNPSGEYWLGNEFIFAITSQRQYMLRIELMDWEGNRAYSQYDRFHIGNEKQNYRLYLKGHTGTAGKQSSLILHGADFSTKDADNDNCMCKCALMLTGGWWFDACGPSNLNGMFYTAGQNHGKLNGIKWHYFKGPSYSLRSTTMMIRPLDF
The target in experiment [7] is Monomeric fibrinogen-like domain of human Ang2 (hAng-2FD) (human) (UniProt O15123). As to the kind of experiment: SPR, peptibody captured on anti-human IgG, 25 C, steady-state.
Sequence of Monomeric fibrinogen-like domain of human Ang2 (hAng-2FD) (human) (O15123 282-496 limits assumed): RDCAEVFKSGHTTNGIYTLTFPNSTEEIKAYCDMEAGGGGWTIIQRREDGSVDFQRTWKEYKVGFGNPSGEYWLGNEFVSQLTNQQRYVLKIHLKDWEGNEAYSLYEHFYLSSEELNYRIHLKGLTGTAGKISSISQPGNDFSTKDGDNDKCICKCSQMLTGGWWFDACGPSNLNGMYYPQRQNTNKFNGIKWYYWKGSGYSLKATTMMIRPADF
In experiment [8] the target is wild-type human Ang-2 (hAng-2-WT) (human) (UniProt O15123). Description: SPR, peptibody captured on anti-human IgG, 25 C. This is another data set of the same source.
Experiment [9] has as its target Full-length wild-type human Ang-1 (hAng-1-WT) (human) (UniProt Q15389). Description: SPR, peptibody captured on anti-human IgG, 37 C.
In experiment [10] the target is wild-type human Ang-2 (hAng-2-WT) (human) (UniProt O15123). Description: SPR, peptibody captured on anti-human IgG, 37 C.
For experiment [11], the target named is Dimeric Human Ang-2FD-mFc (human) (UniProt O15123). As to the kind of experiment: SPR, antibody captured on anti-human kappa, 37 C.
Sequence of Dimeric Human Ang-2FD-mFc (human) (O15123 282-496 limits assumed): as above
Experiment [12] deals with Dimeric fibrinogen-like domain of monkey (Macca fascicularis) Ang-2 conjugated to human IgG1 (monkey (Macca fascicularis)). Description: SPR, antibody captured on anti-human kappa, 37 C.
Sequence of Dimeric fibrinogen-like domain of monkey (Macca fascicularis) Ang-2 conjugated to human IgG1 (monkey (Macca fascicularis)) (chain, as listed by the source limits assumed): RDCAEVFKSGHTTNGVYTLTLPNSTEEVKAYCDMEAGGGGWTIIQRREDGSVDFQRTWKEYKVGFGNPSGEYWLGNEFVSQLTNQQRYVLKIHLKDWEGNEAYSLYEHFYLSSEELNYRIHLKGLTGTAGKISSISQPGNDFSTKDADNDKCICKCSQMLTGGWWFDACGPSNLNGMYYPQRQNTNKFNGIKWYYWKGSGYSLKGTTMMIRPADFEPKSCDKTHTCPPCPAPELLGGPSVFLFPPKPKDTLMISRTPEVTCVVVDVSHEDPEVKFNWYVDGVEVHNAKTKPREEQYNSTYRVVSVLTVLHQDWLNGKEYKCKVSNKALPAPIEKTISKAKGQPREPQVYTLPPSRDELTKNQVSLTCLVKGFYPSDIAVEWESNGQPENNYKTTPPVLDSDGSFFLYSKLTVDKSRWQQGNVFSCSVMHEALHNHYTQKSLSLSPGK
For experiment [13], the target named is Dimeric fibrinogen-like domain of mouse (Mus musculus) Ang-2 conjugated to human IgG1 (mouse (Mus musculus)). As to the kind of experiment: SPR, antibody captured on anti-human kappa, 37 C.
Sequence of Dimeric fibrinogen-like domain of mouse (Mus musculus) Ang-2 conjugated to human IgG1 (mouse (Mus musculus)) (chain, as listed by the source limits assumed): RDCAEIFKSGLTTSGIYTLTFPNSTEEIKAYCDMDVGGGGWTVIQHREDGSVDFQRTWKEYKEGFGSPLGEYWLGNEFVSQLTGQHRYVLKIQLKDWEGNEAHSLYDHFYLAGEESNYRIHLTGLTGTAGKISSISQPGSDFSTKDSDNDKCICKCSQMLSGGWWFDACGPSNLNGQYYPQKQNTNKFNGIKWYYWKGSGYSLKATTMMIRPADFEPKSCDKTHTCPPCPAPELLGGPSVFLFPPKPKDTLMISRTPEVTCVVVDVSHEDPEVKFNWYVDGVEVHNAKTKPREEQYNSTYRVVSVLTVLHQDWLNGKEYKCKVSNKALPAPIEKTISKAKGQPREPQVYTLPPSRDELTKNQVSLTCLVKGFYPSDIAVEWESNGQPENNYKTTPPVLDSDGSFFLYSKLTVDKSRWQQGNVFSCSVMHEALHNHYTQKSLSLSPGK
Experiment [14] has as its target Dimeric Human Ang-2FD-mFc (human) (UniProt O15123). Description: SPR, antibody captured on anti-human kappa, 25 C.
For experiment [15], the target named is Dimeric fibrinogen-like domain of monkey (Macca fascicularis) Ang-2 conjugated to human IgG1 (monkey (Macca fascicularis)). Description: SPR, antibody captured on anti-human kappa, 25 C.
The target in experiment [16] is Dimeric fibrinogen-like domain of mouse (Mus musculus) Ang-2 conjugated to human IgG1 (mouse (Mus musculus)). As to the kind of experiment: SPR, antibody captured on anti-human kappa, 25 C.
For experiment [17], the target named is Full-length wild-type human Ang-1 (hAng-1-WT) (human) (UniProt Q15389). As to the kind of experiment: SPR, antibody captured on anti-human IgG, 25 C.
The target in experiment [18] is wild-type human Ang-2 (hAng-2-WT) (human) (UniProt O15123). As to the kind of experiment: SPR, antibody captured on anti-human IgG, 25 C.
The target of experiment [19] is Monomeric fibrinogen-like domain of human Ang2 (hAng-2FD) (human) (UniProt O15123). Description: SPR, antibody captured on anti-human IgG, 25 C.
Experiment [20] has the same target. As to the kind of experiment: SPR, antibody captured on anti-human IgG, 37 C, steady-state.
Experiment [21] deals with hAng-1-WT (human) (UniProt Q15389). Description: SPR, 1 uM blocker + 10 nM hAng-1-WT over hTie-2-mFc surface (competitor), 25 C; RU of Ang-1 bound to Tie-2.
Sequence of hAng-1-WT (human) (Q15389 20-498 limits assumed): as the sequence (Q15389 20-498 limits assumed) above
Experiment [22] shares this target. As to the kind of experiment: SPR, 1 uM blocker + 10 nM hAng-1-WT over hTie-2-mFc surface (competitor), 25 C.

Sequence of wild-type human Ang-2 (hAng-2-WT) (human) (O15123 19-496 limits assumed): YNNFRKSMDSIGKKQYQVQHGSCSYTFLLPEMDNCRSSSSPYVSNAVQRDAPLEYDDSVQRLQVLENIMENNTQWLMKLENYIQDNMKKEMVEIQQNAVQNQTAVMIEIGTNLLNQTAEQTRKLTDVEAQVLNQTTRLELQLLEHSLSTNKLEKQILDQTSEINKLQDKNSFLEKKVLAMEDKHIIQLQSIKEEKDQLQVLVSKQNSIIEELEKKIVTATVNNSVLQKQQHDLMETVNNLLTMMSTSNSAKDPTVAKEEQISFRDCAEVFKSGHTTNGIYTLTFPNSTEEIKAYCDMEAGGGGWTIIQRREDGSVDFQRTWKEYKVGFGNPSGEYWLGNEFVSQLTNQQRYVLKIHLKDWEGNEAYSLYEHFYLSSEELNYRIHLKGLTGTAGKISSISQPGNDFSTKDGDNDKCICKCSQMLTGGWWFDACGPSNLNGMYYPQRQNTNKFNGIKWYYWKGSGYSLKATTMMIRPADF

As to “Control II: peptibody that binds human Ang-2 having the amino acid sequence of 2XCon4(C) (Fc fusion)”, in experiment [1], the inhibition of Ang-1-induced Tie-2 phosphorylation in EA.hy926 cells (Western blot) came to 50 nM. Also, the Kd (usually the equilibrium constant for the complex coming apart) in experiment [2] is 0.0447 nM; in [3], 90 nM; in [4], 0.0782 nM; in [5], 0.0447 nM; in experiment [6], 0.0826 nM; in experiment [7] it was 90 nM. Besides, the Kd was found to be 0.652 nM in experiment [8], 0.155 nM in experiment [9] and 3.09 nM in experiment [10]. The T1/2 in [2] stood at 5.58 h; in experiment [4], 5.43 h; in experiment [5], 5.58 h; in experiment [6] it was 7.67 h; in [8] it was 3.55 h; in [9] it was 4.43 h. In experiment [10], this substance gave a T1/2 of 1.65 h. Further, the koff (usually the rate constant with which the complex falls apart) in experiment [4] was found to be 3.54e-05 s⁻¹; in experiment [5] it was 3.45e-05 s⁻¹; in experiment [6], 2.51e-05 s⁻¹; in experiment [8], 5.41e-05 s⁻¹; in [9], 4.35e-05 s⁻¹; in experiment [10], 0.000117 s⁻¹. For the same substance, the kon (as a rule, the rate constant with which the complex forms) is 453000 M⁻¹ s⁻¹ in experiment [4]; 773000 M⁻¹ s⁻¹ in experiment [5]; 304000 M⁻¹ s⁻¹ in experiment [6]; 83000 M⁻¹ s⁻¹ in [8]; 281000 M⁻¹ s⁻¹ in experiment [9]; 37900 M⁻¹ s⁻¹ in experiment [10].

Take “Control IV: human anti-Ang-2 antibody with the variable regions of 3.19.3”: the inhibition of Ang-1-induced Tie-2 phosphorylation in EA.hy926 cells (Western blot) in [1] amounted to 100 nM. Also, the equilibrium dissociation constant (Kd) in experiment [11] is 0.00991 nM; in experiment [12], 0.0474 nM; in experiment [13] it was 0.054 nM; in experiment [14] it was 0.0127 nM; in [15], 0.0155 nM; in [16], 0.0402 nM. Besides, the dissociation constant Kd in [17] turned out to be 0.168 nM; in experiment [18], 0.0722 nM; in experiment [19] it was 125 nM; in experiment [20], 94 nM. The T1/2 in experiment [11] came out at 3.07 h; in experiment [12], 1.78 h; in experiment [13], 1.98 h; in experiment [14], 4.48 h; in [15] it was 5.7 h; in experiment [16], 4.82 h. Further, the T1/2 in experiment [17] was determined as 1.75 h; in experiment [18], 0.7 h; in experiment [19] it was 19 s. Besides, the koff was determined as 0.000111 s⁻¹ in [17], 0.000274 s⁻¹ in experiment [18] and 0.0356 s⁻¹ in [19]. The kon in experiment [17] came out at 660000 M⁻¹ s⁻¹; in [18] it was 3.8e+06 M⁻¹ s⁻¹; in experiment [19], 284000 M⁻¹ s⁻¹.

Turning to “Negative Control (irrelevant peptibody) (Fc fusion)”, the RU (average) in experiment [21] is 169 RU. The Percent of Negative Control Binding in [22] amounted to 100%.

The values above are taken from patent publication US20150147342A1.
